The values below are quoted from earlier work in PMC8553002 (Journal of Mass Spectrometry and Advances in the Clinical …, 2020).

The conditions of the data set: insulin degraded by the liver, to a minor extent, kidneys.

For the substance “Insulin: hormone released with C-peptide from proinsulin in equimolar amounts”, the half-life was 3 to 5 min.
